Experimental data from patent US20040071707A1, “Modulation of cell growth” (priority 2000, published 2004).

Key:
HUVEC = test: In vitro endothelial cell proliferation assay; type: cell-based, Human; conditions: for bFGF induced EC growth: 10 ng/mL bFGF, non-toxic doses (<40 μg/mL) for K2P fragments; for effect on basal HUVEC/EC growth (substance alone): M199 with 2% FBS, 4 days, colorimetric
Procedure: Human umbilical vein endothelial cells (HUVEC) were purchased from Clonetics or isolated from umbilical vein cords by mild collagenase treatment as described and cultured in M199 with Earle's salts (Sigma) with 20% heat inactivated fetal bovine serum (Sigma), 100 IU/mL penicillin 100 μg/mL streptomycin (Gibco), 250 ng/mL fungizone (Gibco), 2 mM glutamine (Gibco), 5 IU/mL heparin (Sigma) and 50 μg/mL ECGS (Technoclone, Vienna, Austria). Human vascular smooth muscle cells (HVSMC) were isolated as described.
3×10^3 cells were plated in 96-well plates and allowed to attach overnight. Growth was arrested by incubation with 100 μL reduced growth medium (M199 with 2% FBS) for 24 h. Thereafter anti-tPA antibodies and other reagents were added to wells. K2P (Reteplase), anti-kringle 2 (7VPA) and anti-finger/EGF antibodies (3VPA and 6VPA) were a gift from Technoclone, Vienna, Austria. Anti-kringle 1 (PAM-2), anti-kringle 2 (ESP1) and anti-protease (374B and ESP2) antibodies were purchased from American Diagnostica, Alpha Labs, UK. D-mannitol and LY294002 were obtained from Sigma. VEGF121 and bFGF were purchased from R&D Systems Inc., UK. Recombinant single chain tPA (rsctPA) was obtained from Boehringher Ingelheim. The mutant alatPA was kindly provided by Prof. Roger Lijnen (Center for Molecular and Vascular Biology, Leuven, Belgium). Aprotinin was purchased from Boehringer Mannheim. The tPA peptides (tPA I and tPA II) corresponding to residues 7-17 and 15-26 respectively were synthesized by the Clinical Sciences Centre peptide synthesis facility at Hammersmith and the ICRF peptide unit. Rp-cAMPS and Lavendustin A were obtained from Calbiochem, UK. After 4 days of incubation cell number was quantified colorimetrically by the addition of 20 μL CellTiter 96 AQueous One Solution Cell Proliferation Assay (Promega) at 492 nm and 620 nm reference filter. Background absorbance was determined with substrate alone and subtracted from all wells.
HUVEC were plated at 1×10^5 cells in 12 well plates overnight. Medium was replaced with reduced growth medium overnight followed by addition of anti-K2 antibody. Control wells contained M199 and 2% FBS alone. After 3 days incubation cells were counted in a hemocytometer.

HVSMC = HVSMC growth (proliferation assay); type: cell-based, Human
Procedure: (A and B). HUVEC or HVSMC cultures were incubated with increasing concentrations of PMSF inactivated K2P (K2P-PMSF) or control treated K2P either in the absence (A) or presence (B) of 10 ng/mL bFGF at the concentrations indicated. Angiostatin was included as a positive control for inhibition of bFGF mediated cell growth. HUVEC results represent mean of at least three independent experiments with three different batches of HUVEC. Experiments with HVSMC were repeated twice. (C and D). HUVEC were treated with 100 μg/mL K2P-PMSF and increasing concentrations of either anti-kringle 2 antibody, 7VPA (C) or rsctPA (D) for four days as indicated. Control wells contained M199 and 2% FBS alone. Data represent mean±SE of duplicate experiments with two different batches of HUVEC. […]
3×10^3 cells were plated in 96-well plates and allowed to attach overnight. […] After 4 days of incubation cell number was quantified colorimetrically by the addition of 20 μL CellTiter 96 AQueous One Solution Cell Proliferation Assay (Promega) at 492 nm and 620 nm reference filter. Background absorbance was determined with substrate alone and subtracted from all wells.

| Molecule | bFGF induced EC growth (HUVEC) | concentration giving 50% inhibition (HUVEC; HUVEC growth, bFGF 10 ng/mL (FIG. 4B)) [µg/mL] | effect on basal HUVEC/EC growth (substance alone) (HUVEC) | HVSMC growth in the presence of bFGF (HVSMC; 10 ng/mL bFGF) | basal HVSMC growth, % of control (HVSMC; highest concentration used (100 μg/mL)) | VEGF stimulated HUVEC growth (HUVEC; 10 ng/mL VEGF) |
| --- | --- | --- | --- | --- | --- | --- |
| K2P-PMSF: proteolytically inactivated K2P (protease domain inactivated with PMSF) (protein) SYQVICRDEKTQMIYQQHQSWLRPVLRSNRVEYCWCNSGRAQCHSVPVKSCSEPRCFNGGTCQQALYFSDFVCQCPEGFAGKCCEIDTRATCYEDQGISYRGTWSTAESGAECTNWNSSALAQKPYSGRRPDAIRLGLGNHNYCRNPDRDSKPWCYVFKAGKYSSEFCSTPACSEGNSDCYFGNGSAYRGTHSLTESGASCLPWNSMILIGKVYTAQNPSAQALGLGKHNYCRNPDGDAKPWCHVLKNRRLTWEYCDVPSCSTCGLRQYSQPQFRIKGGLFADIASHPWQAAIFAKHRRSPGERFLCGGILISSCWILSAAHCFQERFPPHHLTVILGRTYRVVPGEEEQKFEVEKYIVHKEFDDDTYDNDIALLQLKSDSSRCAQESSVVRTVCLPPADLQLPDWTECELSGYGKHEALSPFYSERLKEAHVRLYPSSRCTSQHLLNRTVTDNMLCAGDTRSGGPQANLHDACQGDSGGPLVCLNDGRMTLVGIISWGLGCGQKDVPGVYTKVTNYLDWIRDNMRP | completely inhibited | 30 | inhibited | No inhibition | 65 % of control |  |
| rsctPA: Recombinant single chain tPA (protein) SYQVICRDEKTQMIYQQHQSWLRPVLRSNRVEYCWCNSGRAQCHSVPVKSCSEPRCFNGGTCQQALYFSDFVCQCPEGFAGKCCEIDTRATCYEDQGISYRGTWSTAESGAECTNWNSSALAQKPYSGRRPDAIRLGLGNHNYCRNPDRDSKPWCYVFKAGKYSSEFCSTPACSEGNSDCYFGNGSAYRGTHSLTESGASCLPWNSMILIGKVYTAQNPSAQALGLGKHNYCRNPDGDAKPWCHVLKNRRLTWEYCDVPSCSTCGLRQYSQPQFRIKGGLFADIASHPWQAAIFAKHRRSPGERFLCGGILISSCWILSAAHCFQERFPPHHLTVILGRTYRVVPGEEEQKFEVEKYIVHKEFDDDTYDNDIALLQLKSDSSRCAQESSVVRTVCLPPADLQLPDWTECELSGYGKHEALSPFYSERLKEAHVRLYPSSRCTSQHLLNRTVTDNMLCAGDTRSGGPQANLHDACQGDSGGPLVCLNDGRMTLVGIISWGLGCGQKDVPGVYTKVTNYLDWIRDNMRP |  |  | neither rsctPA nor alatPA could stimulate EC growth |  |  |  |
| kringle 2: kringle 2 domain of tPA purified from K2P by limited elastase digestion and lysine-Sepharose (protein) CYFGNGSAYRGTHSLTESGASCLPWNSMILIGKVYTAQNPSAQALGLGKHNYCRNPDGDAKPWCHVLKNRRLTWEYCDVPSC | significantly inhibited |  | significantly inhibited |  |  | significantly inhibited |
